Residue numbers refer to the chain shown, from its start. Where two headings read alike, the source gives them in different places.

The target in test [1] is T1, SARS-Cov2 Spike Active Trimer SAT (R&D Systems; Catalog No. 10549-CV) (SARS-CoV-2, UniProt P0DTC2 16-1211).
The target of test [2] is T1, SARS-Cov2 Spike Active Trimer SAT (R&D …). This is another data set of the same source.
Test [3] shares this target. Description: SPR (Carterra).
Test [4] has the same target. The test can be described thus: ELISA, serially diluted purified Nb-Fc against SAT antigen. Background: An ELISA detects its analyte on a solid surface through an enzyme-linked reagent.

B1: M320_5 Nb-Fc (Fc fusion)
chain: EVQLQQSGPELVKPGASVKMSCKASGYTFTDYYIKWEKQSHGKSLEWIGDINPKNGETFYNQQFKGKATLTVDKSSSTAYMQLNSLTSEDSAVYYCARKEYGDYGYAVDYWGQGTSVTVSS
notes: also called LVGN-S3205
For the molecule B1, binding in test [1] was put at a Kd of 1.21 nM. For the same molecule, in test [2], binding was put at a Kd of 1.06 nM; the koff (usually a measure of how fast the partners let go of each other) amounted to 0.000143 s⁻¹; the kon (in general, a measure of how fast the partners come together) was 135000 M⁻¹ s⁻¹. In addition, in test [3], the Kd (in general, the concentration at which binding is half-saturated) is 3.17 nM. The EC50 (as a rule, the midpoint of the concentration-response curve) in test [4] stood at 0.024 nM.

B2: M2S320_377 Nb-Fc (Fc fusion)
chain: B1 chain with I34V, E37K, K54N, E57D, Q63K, G66D, D103N, Y104F
notes: also called LVGN-S320377
For B2, a half-maximal effect in test [4] (EC50) was put at 0.097 nM.

B3: M2S320_75 Nb-Fc (Fc fusion)
chain: B1 chain with I34M, E37L, S40N, K54N, E57D, Q63K, K74T, V108T
notes: also called LVGN-S32075
For B3, the EC50 in test [4] worked out at 0.068 nM.

B4: M2S521_623 Nb-Fc (Fc fusion)
chain: EVQLQQSGPELVKPGASVKISCKASGYTFTDYYMKWEKQSHGKSLEWIGDINPNNGGTRYNQKFRGKATLTVDKSSSTAYMELRSLTSEDSAVYYCARLEDDYYGYAVDYWGQGTSVTVSS
notes: also called LVGN-S521623
B4 showed an EC50 in test [4] of 0.054 nM.

B5: M2S521_378 Nb-Fc (Fc fusion)
chain: B4 chain with E37V, N54K, R59N, R65K, G66D, D102G, V108I, G112S
notes: also called LVGN-S521378
B5 registered an EC50 in test [4] of 0.081 nM.

B6: M2S521_72 Nb-Fc (Fc fusion)
chain: B4 chain with E37A, D50H, N54V, G57D, R59S, R65K, A79V, D102G, A107T, V108M
notes: also called LVGN-S52172
Regarding B6, the EC50 in test [4] came out at 0.063 nM.

B7: MS521_35 Nb-Fc (Fc fusion)
chain: EVQLQQSGPELVKPGASVKISCKASGYTFTDYYMKWVKQRHGQSLEWIGNINPTNGDTNYSQNFKGKATLTVDKSSTTAYMELRSLTSEDSAVYYCARLEDGYYGYAVDYWGQGTSVTVSS
notes: also called LVGN-S52135
Regarding B7, in test [1], the Kd turned out to be 9.09 nM. In test [2], this molecule registered a koff of 0.000685 s⁻¹ and a kon of 75300 M⁻¹ s⁻¹. Also, binding in test [3] was put at a Kd of 5.3 nM. In test [4], the response was half-maximal at 0.024 nM (EC50).

B8: M2S521_193 Nb-Fc (Fc fusion)
chain: B4 chain with E37V, T58A, R65K, K67R, A97S, D102G
notes: also called LVGN-S521193
The molecule B8 registered an EC50 in test [4] of 0.085 nM.

These data come from patent US20260150817A1 (LEVERAGEN, published 2026).
